B1: WEE1 (parent)
chain: INPFTPDSLLLHSSGQCRRRKRTY
B2: HESX1 (parent)
chain: HVPNPPSGISFPSVVDHPMPEERA

Variants of: B1
Assay: protein stability index of a GFP-peptide fusion (GPS, HEK-293T) (PSI 1-6); higher = more stable
Settings: c terminus: a fixed tail appended
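Also: lentivirally expressed fusions sorted by FACS into six bins by GFP to DsRed ratio, PSI derived from sequencing read proportions per bin multiplied by bin number.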

Compared with ITPFTPDSLLLHSSGQCRRRKRTY [N2T], IDPFTPDSLLLHSSGQCRRRKRTY [N2D] is higher in protein stability index: 3.59 for the first, 4.16 for the second.

Going from IVPFTPDSLLLHSSGQCRRRKRTY [N2V] to IPPFTPDSLLLHSSGQCRRRKRTY [N2P], the protein stability index falls from 3.39 to 3.29.

Compared with IGPFTPDSLLLHSSGQCRRRKRTY [N2G], IIPFTPDSLLLHSSGQCRRRKRTY [N2I] is lower in protein stability index: 3.48 for the first, 2.36 for the second.

Going from IYPFTPDSLLLHSSGQCRRRKRTY [N2Y] to IQPFTPDSLLLHSSGQCRRRKRTY [N2Q], the protein stability index rises from 2.55 to 3.57.

Going from IMPFTPDSLLLHSSGQCRRRKRTY [N2M] to ISPFTPDSLLLHSSGQCRRRKRTY [N2S], the protein stability index rises from 3.08 to 3.54.

First: IRPFTPDSLLLHSSGQCRRRKRTY [N2R]
Second: IFPFTPDSLLLHSSGQCRRRKRTY [N2F]
The protein stability index of the first is higher: 2.9 for the first, 2.35 for the second.

First: IHPFTPDSLLLHSSGQCRRRKRTY [N2H]
Second: IKPFTPDSLLLHSSGQCRRRKRTY [N2K]
The protein stability index of the first is higher: 3.19 for the first, 2.83 for the second.

First: ICPFTPDSLLLHSSGQCRRRKRTY [N2C]
Second: IEPFTPDSLLLHSSGQCRRRKRTY [N2E]
The protein stability index of the first is lower: 3.69 for the first, 3.93 for the second.

Compared with IAPFTPDSLLLHSSGQCRRRKRTY [N2A], IWPFTPDSLLLHSSGQCRRRKRTY [N2W] is lower in protein stability index: 3.09 for the first, 2.39 for the second.

Going from ILPFTPDSLLLHSSGQCRRRKRTY [N2L] to INWFTPDSLLLHSSGQCRRRKRTY [P3W], the protein stability index falls from 2.37 to 1.3.

Compared with INEFTPDSLLLHSSGQCRRRKRTY [P3E], INNFTPDSLLLHSSGQCRRRKRTY [P3N] is lower in protein stability index: 3.44 for the first, 3.12 for the second.

Compared with INVFTPDSLLLHSSGQCRRRKRTY [P3V], INLFTPDSLLLHSSGQCRRRKRTY [P3L] is lower in protein stability index: 2.71 for the first, 2.61 for the second.

First: INMFTPDSLLLHSSGQCRRRKRTY [P3M]
Second: INFFTPDSLLLHSSGQCRRRKRTY [P3F]
The protein stability index of the first is higher: 2.99 for the first, 2.33 for the second.

Compared with INTFTPDSLLLHSSGQCRRRKRTY [P3T], INRFTPDSLLLHSSGQCRRRKRTY [P3R] is higher in protein stability index: 3.06 for the first, 3.4 for the second.

Compared with INAFTPDSLLLHSSGQCRRRKRTY [P3A], INCFTPDSLLLHSSGQCRRRKRTY [P3C] is higher in protein stability index: 3.21 for the first, 3.41 for the second.

First: INSFTPDSLLLHSSGQCRRRKRTY [P3S]
Second: INIFTPDSLLLHSSGQCRRRKRTY [P3I]
The protein stability index of the first is higher: 3.51 for the first, 2.69 for the second.

Compared with INGFTPDSLLLHSSGQCRRRKRTY [P3G], INDFTPDSLLLHSSGQCRRRKRTY [P3D] is higher in protein stability index: 3.11 for the first, 3.33 for the second.

Going from INKFTPDSLLLHSSGQCRRRKRTY [P3K] to INQFTPDSLLLHSSGQCRRRKRTY [P3Q], the protein stability index rises from 3.1 to 3.35.

Going from INHFTPDSLLLHSSGQCRRRKRTY [P3H] to INYFTPDSLLLHSSGQCRRRKRTY [P3Y], the protein stability index falls from 3.93 to 2.38.

Going from INPDTPDSLLLHSSGQCRRRKRTY [F4D] to INPITPDSLLLHSSGQCRRRKRTY [F4I], the protein stability index falls from 3.99 to 3.79.

Going from INPMTPDSLLLHSSGQCRRRKRTY [F4M] to INPHTPDSLLLHSSGQCRRRKRTY [F4H], the protein stability index rises from 4.04 to 4.25.

First: INPCTPDSLLLHSSGQCRRRKRTY [F4C]
Second: INPLTPDSLLLHSSGQCRRRKRTY [F4L]
The protein stability index of the first is higher: 3.67 for the first, 3.2 for the second.

Compared with INPATPDSLLLHSSGQCRRRKRTY [F4A], INPETPDSLLLHSSGQCRRRKRTY [F4E] is higher in protein stability index: 4.11 for the first, 4.48 for the second.

Going from INPKTPDSLLLHSSGQCRRRKRTY [F4K] to INPGTPDSLLLHSSGQCRRRKRTY [F4G], the protein stability index falls from 4.27 to 4.05.

Going from INPNTPDSLLLHSSGQCRRRKRTY [F4N] to ENPFTPDSLLLHSSGQCRRRKRTY [I1E], the protein stability index falls from 4.08 to 3.6.

First: RNPFTPDSLLLHSSGQCRRRKRTY [I1R]
Second: YNPFTPDSLLLHSSGQCRRRKRTY [I1Y]
The protein stability index of the first is higher: 4.02 for the first, 3.05 for the second.

First: SNPFTPDSLLLHSSGQCRRRKRTY [I1S]
Second: WNPFTPDSLLLHSSGQCRRRKRTY [I1W]
The protein stability index of the first is lower: 3.52 for the first, 3.83 for the second.

Going from MNPFTPDSLLLHSSGQCRRRKRTY [I1M] to QNPFTPDSLLLHSSGQCRRRKRTY [I1Q], the protein stability index rises from 3.33 to 3.95.

Compared with PNPFTPDSLLLHSSGQCRRRKRTY [I1P], TNPFTPDSLLLHSSGQCRRRKRTY [I1T] is lower in protein stability index: 4.36 for the first, 3.87 for the second.

First: FNPFTPDSLLLHSSGQCRRRKRTY [I1F]
Second: ANPFTPDSLLLHSSGQCRRRKRTY [I1A]
The protein stability index of the first is lower: 2.73 for the first, 4.07 for the second.

Compared with LNPFTPDSLLLHSSGQCRRRKRTY [I1L], CNPFTPDSLLLHSSGQCRRRKRTY [I1C] is lower in protein stability index: 3.19 for the first, 3.17 for the second.

Compared with HNPFTPDSLLLHSSGQCRRRKRTY [I1H], GNPFTPDSLLLHSSGQCRRRKRTY [I1G] is lower in protein stability index: 3.89 for the first, 3.81 for the second.

First: DNPFTPDSLLLHSSGQCRRRKRTY [I1D]
Second: VNPFTPDSLLLHSSGQCRRRKRTY [I1V]
The protein stability index of the first is higher: 4.03 for the first, 3.55 for the second.

Compared with NNPFTPDSLLLHSSGQCRRRKRTY [I1N], KNPFTPDSLLLHSSGQCRRRKRTY [I1K] is lower in protein stability index: 4.17 for the first, 3.62 for the second.

Variants of: B2
Assay: as above
Settings: c terminus: a fixed tail appended

First: HVPNPPSGISFPSVVDHPMPEERC [A24C]
Second: HVPNPPSGISFPSVVDHPMPEERF [A24F]
The protein stability index of the first is lower: 2.09 for the first, 2.3 for the second.

Going from HVPNPPSGISFPSVVDHPMPEERH [A24H] to HVPNPPSGISFPSVVDHPMPEERW [A24W], the protein stability index falls from 2.65 to 1.91.

First: HVPNPPSGISFPSVVDHPMPEERE [A24E]
Second: HVPNPPSGISFPSVVDHPMPEERT [A24T]
The protein stability index of the first is higher: 2.95 for the first, 2.87 for the second.

First: HVPNPPSGISFPSVVDHPMPEERR [A24R]
Second: HVPNPPSGISFPSVVDHPMPEERK [A24K]
The protein stability index of the first is higher: 2.87 for the first, 2.63 for the second.

First: HVPNPPSGISFPSVVDHPMPEERG [A24G]
Second: HVPNPPSGISFPSVVDHPMPEERQ [A24Q]
The protein stability index of the first is lower: 2.33 for the first, 2.38 for the second.

HVPNPPSGISFPSVVDHPMPEERP [A24P] and HVPNPPSGISFPSVVDHPMPEERV [A24V] are the same in protein stability index: 2.98 for the first, 2.98 for the second.

HVPNPPSGISFPSVVDHPMPEERM [A24M] and HVPNPPSGISFPSVVDHPMPEERD [A24D] are the same in protein stability index: 2.77 for the first, 2.77 for the second.

Compared with HVPNPPSGISFPSVVDHPMPEERI [A24I], HVPNPPSGISFPSVVDHPMPEERN [A24N] is higher in protein stability index: 2.36 for the first, 2.74 for the second.

Compared with HVPNPPSGISFPSVVDHPMPEERY [A24Y], HVPNPPSGISFPSVVDHPMPEERL [A24L] is higher in protein stability index: 2.13 for the first, 2.32 for the second.

Going from HVPNPPSGISFPSVVDHPMPEERS [A24S] to HVPNPPSGISFPSVVDHVMPEERA [P18V], the protein stability index rises from 2.5 to 2.64.

First: HVPNPPSGISFPSVVDHRMPEERA [P18R]
Second: HVPNPPSGISFPSVVDHTMPEERA [P18T]
The protein stability index of the first is higher: 2.79 for the first, 2.51 for the second.

Compared with HVPNPPSGISFPSVVDHYMPEERA [P18Y], HVPNPPSGISFPSVVDHWMPEERA [P18W] is lower in protein stability index: 2.48 for the first, 2.28 for the second.

HVPNPPSGISFPSVVDHQMPEERA [P18Q] and HVPNPPSGISFPSVVDHSMPEERA [P18S] are the same in protein stability index: 2.61 for the first, 2.61 for the second.
